# Results as given in patent US7084111.
# Experiments:
# Test in all cases: cell-based or functional assay
# [1] = target: mouse melanocortin-1 receptor (mouse) (UniProt Q01727)
# [2] = target: mouse melanocortin-3 receptor (mouse) (UniProt P33033)
# [3] = target: mouse melanocortin-5 receptor (mouse) (UniProt P41149)
# [4] = target: mouse melanocortin-4 receptor (mouse) (UniProt P56450)
# Sequence of mouse melanocortin-4 receptor (mouse) (P56450 whole entry): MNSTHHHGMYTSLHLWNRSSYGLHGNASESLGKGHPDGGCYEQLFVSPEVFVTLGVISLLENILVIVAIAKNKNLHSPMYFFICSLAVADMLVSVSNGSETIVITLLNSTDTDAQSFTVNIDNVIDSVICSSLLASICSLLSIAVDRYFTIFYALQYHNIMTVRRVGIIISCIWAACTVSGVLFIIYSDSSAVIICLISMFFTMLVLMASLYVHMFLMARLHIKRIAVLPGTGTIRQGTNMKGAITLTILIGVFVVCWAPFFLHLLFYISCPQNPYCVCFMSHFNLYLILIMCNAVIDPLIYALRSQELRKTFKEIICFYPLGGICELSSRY
# Sequence of mouse melanocortin-3 receptor (mouse) (P33033 whole entry): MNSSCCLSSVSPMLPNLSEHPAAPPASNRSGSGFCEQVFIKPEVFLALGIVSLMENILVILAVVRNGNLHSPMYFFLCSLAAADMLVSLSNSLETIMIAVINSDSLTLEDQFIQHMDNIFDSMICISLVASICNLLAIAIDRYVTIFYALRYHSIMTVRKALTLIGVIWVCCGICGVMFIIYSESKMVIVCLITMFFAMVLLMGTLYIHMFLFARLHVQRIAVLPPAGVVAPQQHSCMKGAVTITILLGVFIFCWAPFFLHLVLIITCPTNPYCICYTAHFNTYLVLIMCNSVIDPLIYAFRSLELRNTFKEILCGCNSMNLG
# Sequence of mouse melanocortin-1 receptor (mouse) (Q01727 whole entry): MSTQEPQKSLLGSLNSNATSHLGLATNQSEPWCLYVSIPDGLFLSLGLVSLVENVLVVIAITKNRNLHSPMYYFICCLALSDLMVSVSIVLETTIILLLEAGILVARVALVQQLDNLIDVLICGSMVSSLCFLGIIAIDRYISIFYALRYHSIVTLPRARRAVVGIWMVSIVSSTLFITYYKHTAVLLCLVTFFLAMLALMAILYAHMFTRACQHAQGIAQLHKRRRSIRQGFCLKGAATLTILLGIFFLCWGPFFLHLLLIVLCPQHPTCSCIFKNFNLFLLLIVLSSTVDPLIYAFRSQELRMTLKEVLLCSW
# Sequence of mouse melanocortin-5 receptor (mouse) (P41149 whole entry): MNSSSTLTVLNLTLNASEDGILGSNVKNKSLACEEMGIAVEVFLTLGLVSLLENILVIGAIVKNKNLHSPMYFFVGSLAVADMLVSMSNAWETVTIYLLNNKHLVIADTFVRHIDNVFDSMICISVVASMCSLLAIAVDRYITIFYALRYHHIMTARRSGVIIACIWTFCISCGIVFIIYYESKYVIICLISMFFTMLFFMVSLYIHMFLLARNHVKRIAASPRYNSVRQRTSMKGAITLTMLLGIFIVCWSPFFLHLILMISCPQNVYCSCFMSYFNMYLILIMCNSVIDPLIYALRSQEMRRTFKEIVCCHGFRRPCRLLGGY
EC50 (agonist) [1] [nM],EC50 (agonist) [2] [nM],EC50 (agonist) [3] [nM],pA2 (antagonist) [4],Substance
0.02,–,–,–,MTII (peptide)
–,0.098,0.071,–,NDP-MSH (peptide)
5120,> 100000,> 100000,6.8,hAGRP(109-118) decapeptide (from UniProt O00253 109-118)
